Laboratory results from patent US20250296971A1, “GASTRIC INHIBITORY PEPTIDE RECEPTOR LIGANDS” (priority 2021, published 2025).
*1 amine or outer side, *2 acyl side, *3 side chain or, on linkers, in order; H or OH if unused. Bridges are numbered along the chain shown (N, C = ends). Where no end group is shown, it is not given here. [ ]: non-standard residue; d: D form. The star is where a group is joined. Ttds = 1,13-diamino-4,7,10-trioxatridecan-succinamic acid, NCCCOCCOCCOCCCNC(=O)CCC(=O)*; dE(AGLU) = D-glutamic acid bearing 1-amino-1-deoxy-D-glucitol; Pro(trans-4-NH2) = O=C([C@@H]1C[C@@H](N[*:3])CN1[*:1])[*:2]; DOTA = O=C(O)CN1CCN(CC(=O)O)CCN(CC(=O)*)CCN(CC(=O)O)CC1; 2Lut = 2,6-lutidylidene bridge between two thiols; Trp(5-Cl) = N[C@@H](Cc1c[nH]c2ccc(Cl)cc12)C(=O)O; Pyridine(2,6-diCH2) = c1cc(C[*:1])nc(C[*:2])c1; APAc = 4-amino-1-carboxymethylpiperidine; Ethylenediamine = C(CN[*:2])N[*:1]; Glutaryl = O=C(CCCC(=O)[*:2])[*:1]; AGLU = 1-amino-1-deoxy-D-glucitol; Hyp = O=C(O)[C@@H]1C[C@@H](O)CN1; glu(AGLU) = not defined here; hSer = N[C@@H](CCO)C(=O)O; 3CbBn = 3-carboxybenzyl; Api = NC1(C(=O)O)CCNCC1; Aib = CC(C)(N)C(=O)O

B1: AGLU-Glutar-APAc-Ser-Trp-5Clw-Tap-Hse-leu-[Cys(2Lut)-Apc(DOTA)-Leu-Ile-Cys]-APAc-glu(AGLU)-NH2 (peptide)
peptide: {AGLU-Glutaryl-APAc}-SW[Trp(5-Cl)][Pro(trans-4-NH2)][hSer][dL]C[Api](DOTA)LIC-{APAc-glu(AGLU)-NH2}
modifications: linker 7-11 via 2Lut; reading uncertain
B2: DOTA-Ttds-Asp-Trp-5Clw-Pro-Glu-leu-[Cys(3CbBn)-Aib-Leu-Ile-en] (peptide)
peptide: {DOTA-Ttds}-DW[Trp(5-Cl)]PE[dL]C[Aib]LI[Ethylenediamine]
modifications: bridge (positions not given here) via 3CbBn; not fully specified (bridges); printed as DOTA-Ttds-Asp-Trp-5Clw-Pro-Glu-leu-[Cys(3CbBn)-Aib-Leu-Ile-en]
B3: AGLU-Glutar-APAc-Ser-Trp-5Clw-Tap(AGLU-Glutar)-Hse-leu-[Cys(2Lut)-Apc(DOTA)-Leu-Ile-Cys]-APAc-glu(AGLU)-NH2 (peptide)
peptide: SWXXXXCXLIC
modifications: AGLU-Glutar-APAc; 5Clw; Tap(AGLU-Glutar); Hse; D-leu; Apc(DOTA); 2Lut bridge Cys-Cys; APAc; D-glu(AGLU); C-term NH2
B4: AGLU-Glutar-APAc-Hse-Trp-5Clw-Hyp-Glu-leu-[Cys(2Lut)-Apc(DOTA)-Leu-Ile-Cys]-APAc-glu(AGLU)-NH2 (peptide)
peptide: {AGLU-Glutaryl-APAc}-[hSer]W[Trp(5-Cl)][Hyp]E[dL]C[Api](DOTA)LIC-{APAc-dE(AGLU)-NH2}
modifications: linker 7-11 via Pyridine(2,6-diCH2)
B5: 111In-labeled AGLU-Glutar-Asp-Trp-5Clw-Tap-Glu-leu-[Cys(2Lut)-Apc(DOTA)-Leu-Ile-Cys]-APAc-glu(AGLU)-NH2 (111In-GIP-001) (peptide)
peptide: {AGLU-Glutaryl}-DW[Trp(5-Cl)][Pro(trans-4-NH2)]E[dL]C[Api](DOTA)LIC-{APAc-dE(AGLU)-NH2}
modifications: linker 7-11 via Pyridine(2,6-diCH2); also: DOTA complexed with 111In

Columns and labels:
[1] = target: biotinylated extracellular domain of the human GIP receptor (bioGIPR) (human) (UniProt P48546); assay: SPR single cycle kinetics, bioGIPR captured on chip; category D: t1/2 <2.0 min
[2] = target: biotinylated extracellular domain of the human GIP receptor (bioGIPR) (human) (UniProt P48546); assay: SPR single cycle kinetics, bioGIPR captured on chip; category B: pKD 8.1-9.0
[3] = target: human Gastric Inhibitory Peptide Receptor (human) (UniProt P48546); assay: FACS competition with GIP-057 on CHO-K1-hGIPR cells; pIC50 category B: 7.1-8.0
[4] = target: human Gastric Inhibitory Peptide Receptor (GIPR) (human) (UniProt P48546); assay: FACS competition vs biotinylated GIP-057 on CHO-K1-hGIPR cells; category B: pIC50 7.1-8.0
[5] = target: biotinylated extracellular domain of the human GIP receptor (bioGIPR) (human) (UniProt P48546); assay: SPR single cycle kinetics, bioGIPR captured on chip; category C: t1/2 5-2.1 min
[6] = target: dog GIPR (dog); assay: radioligand binding assay, 111In-labeled compound on CHO-VGT cells expressing dog GIPR, 6 h 37 °C; pKD category A = pKD > 9.5
[7] = target: rat GIPR (rat) (UniProt P43219); assay: radioligand binding assay, 111In-labeled compound on CHO-VGT cells expressing rat GIPR, 6 h 37 °C; pKD category B = pKD between 9.0 and 9.5
[8] = target: mouse GIPR (mouse) (UniProt Q0P543); assay: radioligand binding assay, 111In-labeled compound on CHO-VGT cells expressing mouse GIPR, 6 h 37 °C; pKD category C = pKD < 9.0
[9] = target: human gastric inhibitory polypeptide receptor (human GIPR) (human) (UniProt P48546); assay: radioligand binding assay, 111In-labeled compound on CHO cells expressing GIPR, 6 h 37 °C; pKD category A = pKD > 9.5
Chain of human gastric inhibitory polypeptide receptor (human GIPR) (human) (P48546 22-466 limits assumed): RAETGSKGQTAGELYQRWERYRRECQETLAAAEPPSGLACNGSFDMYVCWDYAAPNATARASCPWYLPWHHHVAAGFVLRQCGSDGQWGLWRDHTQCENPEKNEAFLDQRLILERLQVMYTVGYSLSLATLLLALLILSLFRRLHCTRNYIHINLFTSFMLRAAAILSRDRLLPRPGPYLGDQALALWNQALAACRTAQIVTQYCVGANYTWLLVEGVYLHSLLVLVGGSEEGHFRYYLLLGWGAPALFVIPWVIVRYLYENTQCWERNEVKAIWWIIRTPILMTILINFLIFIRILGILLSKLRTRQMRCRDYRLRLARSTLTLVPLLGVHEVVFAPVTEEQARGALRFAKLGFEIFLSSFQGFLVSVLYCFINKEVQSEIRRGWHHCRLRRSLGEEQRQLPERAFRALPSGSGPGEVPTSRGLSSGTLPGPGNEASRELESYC

Chain of human Gastric Inhibitory Peptide Receptor (human) (P48546 22-466 limits assumed): as above
Chain of biotinylated extracellular domain of the human GIP receptor (bioGIPR) (human) (P48546 24-138 limits assumed): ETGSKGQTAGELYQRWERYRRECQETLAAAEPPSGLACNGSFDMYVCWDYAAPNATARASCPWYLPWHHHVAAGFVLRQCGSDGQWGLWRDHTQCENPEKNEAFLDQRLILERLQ
Chain of dog GIPR (dog) (chain, as listed by the source limits assumed, form in doubt): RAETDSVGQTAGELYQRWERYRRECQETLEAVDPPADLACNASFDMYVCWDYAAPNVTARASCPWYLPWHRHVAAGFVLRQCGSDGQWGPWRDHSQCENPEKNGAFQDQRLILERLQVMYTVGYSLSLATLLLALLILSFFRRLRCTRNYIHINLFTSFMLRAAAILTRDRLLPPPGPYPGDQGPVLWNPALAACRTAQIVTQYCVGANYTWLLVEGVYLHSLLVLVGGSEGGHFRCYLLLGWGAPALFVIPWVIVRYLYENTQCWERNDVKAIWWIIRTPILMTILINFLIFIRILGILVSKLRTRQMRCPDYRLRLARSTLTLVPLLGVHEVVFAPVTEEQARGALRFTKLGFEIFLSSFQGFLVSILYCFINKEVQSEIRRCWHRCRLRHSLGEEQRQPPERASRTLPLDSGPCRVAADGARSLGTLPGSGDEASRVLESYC
Chain of mouse GIPR (mouse) (Q0P543 19-460): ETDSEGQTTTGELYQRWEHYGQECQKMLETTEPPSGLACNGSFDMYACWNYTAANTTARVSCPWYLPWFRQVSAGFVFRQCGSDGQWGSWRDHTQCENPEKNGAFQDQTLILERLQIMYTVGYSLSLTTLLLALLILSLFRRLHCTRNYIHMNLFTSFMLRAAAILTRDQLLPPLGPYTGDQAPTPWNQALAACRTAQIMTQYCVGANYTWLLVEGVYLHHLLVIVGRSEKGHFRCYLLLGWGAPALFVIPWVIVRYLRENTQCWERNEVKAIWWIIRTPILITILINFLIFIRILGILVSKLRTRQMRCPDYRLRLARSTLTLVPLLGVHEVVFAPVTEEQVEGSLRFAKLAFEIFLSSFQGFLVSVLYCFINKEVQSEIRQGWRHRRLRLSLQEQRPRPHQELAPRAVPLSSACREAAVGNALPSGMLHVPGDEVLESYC
Chain of rat GIPR (rat) (P43219 19-455): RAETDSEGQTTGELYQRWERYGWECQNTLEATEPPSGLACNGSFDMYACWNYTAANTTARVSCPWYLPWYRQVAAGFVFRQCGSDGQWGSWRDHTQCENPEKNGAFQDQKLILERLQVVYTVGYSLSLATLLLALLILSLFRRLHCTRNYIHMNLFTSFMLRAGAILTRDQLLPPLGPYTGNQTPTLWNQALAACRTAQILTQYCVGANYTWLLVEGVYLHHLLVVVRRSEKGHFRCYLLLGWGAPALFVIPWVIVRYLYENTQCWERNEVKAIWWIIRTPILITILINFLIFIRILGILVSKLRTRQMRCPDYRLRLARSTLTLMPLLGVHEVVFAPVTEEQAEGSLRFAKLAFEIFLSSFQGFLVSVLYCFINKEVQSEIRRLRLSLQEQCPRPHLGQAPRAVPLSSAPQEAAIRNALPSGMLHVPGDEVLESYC

Binder | t1/2 [1] [min] | pKD [2] [pkd] | pIC50 [3] [pic50] | pIC50 [4] [pic50] | t1/2 [5] [min] | pKD [6] [pkd] | pKD [7] [pkd] | pKD [8] [pkd] | pKD [9] [pkd]
B1 | < 2 | 8.1 to 9 | 7.1 to 8 |  |  |  |  |  | 
B2 |  | 8.1 to 9 |  | 7.1 to 8 | 2.1 to 5 |  |  |  | 
B3 | < 2 | 8.1 to 9 | 7.1 to 8 |  |  |  |  |  | 
B4 | < 2 | 8.1 to 9 | 7.1 to 8 |  |  |  |  |  | 
B5 |  |  |  |  |  | > 9.5 | 9 to 9.5 | < 9 | > 9.5
